The values that follow come from the Human Domainome abundance scans (Beltran et al. 2025).

± gives the uncertainty stated by the source.

Sequences and labels used below:
B1: Peroxisome proliferator-activated receptor delta, residues 71 to 145; numbered along this chain, Q03181 (parent)
chain: NMECRVCGDKASGFHYGVHACEGCKGFFRRTIRMKLEYEKCERSCKIQKKNRNKCQYCRFQKCLALGMSHNAIRF

The variants in the data set derive from B1. The data set can be described thus: abundance fitness (aPCA) (normalised: wild type 0, dead -1); higher = more abundant; growth selection in yeast, the domain comes from the species named. The note with it: Homo sapiens.
As for NMECRVCGDKASGFHYGVHACEGCKGFFRRTIRMKLEYIKCERSCKIQKKNRNKCQYCRFQKCLALGMSHNAIRF [E39I], the abundance fitness is -0.191 ± 0.077.

NMECRVCGDKASGFHYGVHACEGCKGFFRRTIRMKLEYEKCERSCKIQKKNRNKCQYCRFQKCLALVMSHNAIRF [G67V]: the abundance fitness is -0.673 ± 0.075.

As to NMECRVCGDKASGFHYGVHACEGCKGFFRRTIRMKLEYEKCERSCKIQKKNRNKCQYCRFQKCGALGMSHNAIRF [L64G], the abundance fitness is -0.805 ± 0.079.

Consider NMECRVCGDKASGFHYGVHACEGCKGFFRRTIRMKLEYEKCERSCKIQKKNRNKCQYCRFQKCDALGMSHNAIRF [L64D], for which the abundance fitness was -0.83 ± 0.18.

Take NMECRVCGDKASGFHYGVHACEGCKGFFRTTIRMKLEYEKCERSCKIQKKNRNKCQYCRFQKCLALGMSHNAIRF [R30T]: the abundance fitness was -0.07 ± 0.058.

Take NMECRVCGDKASGFHYGVHACEGCKGFFRRTIRMKLEYEKCERECKIQKKNRNKCQYCRFQKCLALGMSHNAIRF [S44E]: the abundance fitness came to 0.139 ± 0.04.

Take NMECRVCGDKASGFHYGVHACEGCKGFFRRTIRMKLEYEKCERTCKIQKKNRNKCQYCRFQKCLALGMSHNAIRF [S44T]: the abundance fitness is -0.049 ± 0.05.

Consider NMECRVCGDKASGFHYGVHACEGCKGFFRRTIRMKLEYEKCERSCKIQKKNRNKCQYCRFQKCLALGMSHNAIKF [R74K], for which the abundance fitness amounted to 0.067 ± 0.075.

For the variant NMECRVCGDKASGFHYGVHACEGCKGFFRRTIRMKLEYEKCERSCKIQKKNRNKCQYCRFQKCLALGMSHNAINF [R74N], the abundance fitness was 0.011 ± 0.15.

On to NMECRVCGDKASGFHYGVHACEGCKGFFRRTIRMKLEYEKCERSCKIQKKNRNKCQYCRFQKCLALGMPHNAIRF [S69P], for which the abundance fitness is -0.461 ± 0.092.

With NMECRVCGDKASGFHYGVHACEGCKGFFRRTIRMKLEYEKCERSCKIQKKNRNKCQYCRVQKCLALGMSHNAIRF [F60V], the abundance fitness is -0.622 ± 0.066.

For the variant NMECRVCGDKASGFHYGVHACEGCKGFFRRTIRMKLEYEKCERSCKIQKKNRNKCQYCRSQKCLALGMSHNAIRF [F60S], the abundance fitness was -0.557 ± 0.09.

As for NMECRVCGDKASGFHYGVHACEGCKGFFRRTIRMKLEYEKCERSCKIQKKNRNKCQYCRIQKCLALGMSHNAIRF [F60I], the abundance fitness is -0.399 ± 0.13.

Regarding NEECRVCGDKASGFHYGVHACEGCKGFFRRTIRMKLEYEKCERSCKIQKKNRNKCQYCRFQKCLALGMSHNAIRF [M2E], the abundance fitness was -0.227 ± 0.063.

For NWECRVCGDKASGFHYGVHACEGCKGFFRRTIRMKLEYEKCERSCKIQKKNRNKCQYCRFQKCLALGMSHNAIRF [M2W], the abundance fitness was -0.527 ± 0.098.

Take NMECRVCGDKASGFHYGVHACEGCKGFFRRTIRMKLEYEKCERSCKIQKKNRNVCQYCRFQKCLALGMSHNAIRF [K54V]: the abundance fitness is -0.037 ± 0.035.

As for NMECRVCGDKASGFHYGVHACEGCKGFFRRTIRMKLEYEKCERSCKIQKKNRNFCQYCRFQKCLALGMSHNAIRF [K54F], the abundance fitness was determined as 0.065 ± 0.072.

In the case of NMECRVCGDKASGFHYGVHACEGCKGFFRRTIRMKLEYEKCERSCKIQKKNRNHCQYCRFQKCLALGMSHNAIRF [K54H], the abundance fitness is -0.059 ± 0.091.

For NMECRVCGDKASGFHYGVHACEGCKGFFRRTIRMKLEYEKCERSCKIQKKNRNKCQYCNFQKCLALGMSHNAIRF [R59N], the abundance fitness was -0.704 ± 0.2.

NMECRVCGDKASGFHYGVHACEGCKGFFRRTIRMKLEYEKCERSCKIQKKNRNKCQYCPFQKCLALGMSHNAIRF [R59P]: the abundance fitness was -0.903 ± 0.16.

NMECRVCGDKASGFHYGVHACEDCKGFFRRTIRMKLEYEKCERSCKIQKKNRNKCQYCRFQKCLALGMSHNAIRF [G23D]: the abundance fitness stood at 0.192 ± 0.054.

As to NMECRVCGDKASGFHYGVHACEGCKGFFRRTIRMKLEYEKCERSCKIQKKNRNKFQYCRFQKCLALGMSHNAIRF [C55F], the abundance fitness was -0.824 ± 0.27.

Consider NMECRVCGDKASGFHYGVHACEGCKGFFRRTIRMKLEYEHCERSCKIQKKNRNKCQYCRFQKCLALGMSHNAIRF [K40H], for which the abundance fitness came out at 0.08 ± 0.096.

As for NMECRVCGDKASGFHYGVHACEGCRGFFRRTIRMKLEYEKCERSCKIQKKNRNKCQYCRFQKCLALGMSHNAIRF [K25R], the abundance fitness was -0.003 ± 0.033.

Take NMECRVCGDKASGFHYGVHACEGCIGFFRRTIRMKLEYEKCERSCKIQKKNRNKCQYCRFQKCLALGMSHNAIRF [K25I]: the abundance fitness is 0.061 ± 0.063.

Take NMECRVCGDKASGFHYGVHACEGCKGFFRRTIRMKLEYEKCERSCKIQKKNRNKCQYCRFQKCLALGMSHCAIRF [N71C]: the abundance fitness is -0.246 ± 0.089.

Take NMECRVCGDKASGFHYGVHACEGCKGFFRRTIRMKLEYEKCERSCKIQKKNRNKCQHCRFQKCLALGMSHNAIRF [Y57H]: the abundance fitness was -0.177 ± 0.12.

For the variant NMECRVCGDKASGFHYGVHACEGCKGFFRRTIRMKLRYEKCERSCKIQKKNRNKCQYCRFQKCLALGMSHNAIRF [E37R], the abundance fitness was -0.069 ± 0.034.

Regarding NMECRVCGDKASGFHYGVHACEGCKGFFRRTIRMKLEYEKCERSCLIQKKNRNKCQYCRFQKCLALGMSHNAIRF [K46L], the abundance fitness turned out to be 0.022 ± 0.033.

For the variant NMECRVCGDKASGFHYGVHACEGCKGFFRRTIRMKLEYEKCERSCKIQKKNRNKCQYCRFQKCLALGMSHNAARF [I73A], the abundance fitness amounted to 0.202 ± 0.038.

NMECRVCGDKASGFHYGVHACEGCKGFFRRTIRMKLEYEKCHRSCKIQKKNRNKCQYCRFQKCLALGMSHNAIRF [E42H]: the abundance fitness is -0.195 ± 0.08.

As to NMECRVCGDKASGFHYGVHACEGCKGFFRRTIRMKLEYEKCPRSCKIQKKNRNKCQYCRFQKCLALGMSHNAIRF [E42P], the abundance fitness is -0.25 ± 0.056.

As for NMECRVCGDKASGFHYGVHACEGCKGFFRRTIRMKLEYEKCDRSCKIQKKNRNKCQYCRFQKCLALGMSHNAIRF [E42D], the abundance fitness is -0.16 ± 0.073.

Regarding NMECRVCGDKASGFHYGVHACEGCKGFFRRTIRMKLEYEKCERSCKIQKKNRNKCQYCRFQKCLALGKSHNAIRF [M68K], the abundance fitness is -0.769 ± 0.14.

For the variant NMECRVCGDKASGFHYGVHACEGCKGFFRRTIRMKLEYEKCERSCKIQKKNRNKCQYCRFQKCLALGYSHNAIRF [M68Y], the abundance fitness was -0.718 ± 0.16.

Consider NMECRVWGDKASGFHYGVHACEGCKGFFRRTIRMKLEYEKCERSCKIQKKNRNKCQYCRFQKCLALGMSHNAIRF [C7W], for which the abundance fitness was -0.895 ± 0.15.

As to NMECRVMGDKASGFHYGVHACEGCKGFFRRTIRMKLEYEKCERSCKIQKKNRNKCQYCRFQKCLALGMSHNAIRF [C7M], the abundance fitness is -0.984 ± 0.18.
